Experimental data as given in patent EP1960427B1.

How the values were obtained:
[1] = target: immune complexes consisting of ovalbumin and anti-ovalbumin antibody (OVA ICs); assay: cell-based or functional assay
[2] = target: heat-aggregated IgG (HAGG); assay: cell-based or functional assay
[3] = target: human IgG monomer (Sandoglobulin, Novartis) (human); assay: BIAcore equilibrium binding over immobilised human IgG monomer; two-binding site model, KD2
[4] = target: heat-aggregated IgG (HAGG); assay: BIAcore equilibrium binding over immobilised HAGG; two-binding site model, KD1
[5] = target: human IgG monomer (Sandoglobulin, Novartis) (human); assay: BIAcore equilibrium binding over immobilised IgG
[6] = target: dimer-IgG (Wright et al.), small immune complex; assay: flow cytometry, inhibition of dimer-IgG binding to human neutrophils
[7] = target: dimer-IgG (Wright et al.), small immune complex; assay: flow cytometry, inhibition of dimer-IgG binding to human neutrophils from two individuals
[8] = target: human IgG monomer (Sandoglobulin, Novartis) (human); assay: BIAcore equilibrium binding over immobilised human IgG monomer; two-binding site model, KD1
[9] = target: heat-aggregated IgG (HAGG); assay: flow cytometry, block of HAGG binding to IIA1.6 cells with human FcγRIIb
[10] = target: heat-aggregated IgG (HAGG); assay: BIAcore equilibrium binding over immobilised HAGG
[11] = target: heat-aggregated IgG (HAGG); assay: BIAcore equilibrium binding over immobilised HAGG; two-binding site model, KD2
[12] = target: heat-aggregated IgG (HAGG); assay: BIAcore equilibrium binding, receptor injected over immobilised HAGG; single-binding site
[13] = target: human IgG monomer (Sandoglobulin, Novartis) (human); assay: BIAcore equilibrium binding, receptor injected over immobilised IgG; single-binding site

Substance	IC50 of TNF-α release from MC/9 cells induced by OVA ICs [1] [µg/mL]	fold potency over rsFcγRIIa monomer, TNF-α release from MC/9 cells [1] [fold]	IC50 of HAGG-induced platelet activation (CD41 and CD62P positive platelets) [2] [µg/mL]	fold potency over rsFcγRIIa monomer, HAGG-induced platelet activation [2] [fold]	Kd [3] [nM]	Kd [4] [nM]	fold greater avidity than the monomeric receptor [5] [fold]	IC50 [6] [µg/mL]	fold more active than rsFcγRIIa monomer [6] [fold]	IC50 [7] [µg/mL]	Kd [8] [nM]	IC50 [9] [µg/mL]	fold more potent than the monomer protein [9] [fold]	fold lesser KD1 than the KD of monomeric rsFcγRIIa [10] [fold]	Kd [11] [nM]	Kd [12] [nM]	Kd [13] [nM]
recombinant soluble FcγRIIa head to tail homodimer (rsFcγRIIa dimer), construct of Figure 1 (pBAR397/pBAR427) (from UniProt P12318 34-215; P12318 36-215) (receptor)	2.1	8	3.9	5	100	2.73	300	1.1	10	0.9 to 1.1	3.2	0.0039	> 500	300	99		
recombinant soluble FcγRIIa monomer (rsFcγRIIa monomer), expressed in HEK 293E cells from pBAR426 (from UniProt P12318 34-217) (receptor)								10.5								1050	1700
rsFcγRIIa monomer (R&D Systems, Cat # 1330-CD/CF) (from UniProt P12318 36-218) (receptor)	17.7		20.9									2.08					
